According to the supplement of paper PMC9112550, “Optimization of the antimicrobial peptide Bac7 by deep mutational scanning” (BMC Biology, 2022):

System: Escherichia coli TOP10
Experiment: shrunken log2 fold change of peptide-encoding DNA abundance (4.5 h post-induction vs induction); higher = less antimicrobial activity (less host growth inhibition)
Details: time post-induction: 4.5 h; library: site-saturation at positions 5, 18, 19, 20
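Note: peptides expressed intracellularly from a pBAD plasmid library in pooled LB shake-flask culture, induced with 0.3% L-arabinose, DNA abundance read by NGS, three biological replicates, DESeq2 with apeglm shrinkage.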

Sequence	shrunken log2 fold change
RRIRPRPPRLPRPRPRPCWQPRP	-0.021
RRIRPRPPRLPRPRPRPYITPRP	-0.739
RRIRMRPPRLPRPRPRPGPYPRP	-0.149
RRIRDRPPRLPRPRPRPDIVPRP	0.0868
RRIRMRPPRLPRPRPRPINDPRP	-0.401
RRIRRRPPRLPRPRPRPYGWPRP	0.0825
RRIRFRPPRLPRPRPRPQYDPRP	-0.75
RRIRSRPPRLPRPRPRPHEAPRP	0.0366
RRIRVRPPRLPRPRPRPNTHPRP	-0.457
RRIRVRPPRLPRPRPRPQSAPRP	-0.054
RRIRGRPPRLPRPRPRPHVVPRP	0.1
RRIRTRPPRLPRPRPRPSEPPRP	-0.295
RRIRPRPPRLPRPRPRPKIKPRP	-0.0894
RRIRNRPPRLPRPRPRPGENPRP	0.185
RRIRPRPPRLPRPRPRPKWSPRP	-0.113
RRIRCRPPRLPRPRPRPIINPRP	-0.325
RRIRNRPPRLPRPRPRPKIVPRP	-0.0195
RRIRYRPPRLPRPRPRPIWRPRP	0.0429
RRIRHRPPRLPRPRPRPKFTPRP	-0.219
RRIRYRPPRLPRPRPRPHNFPRP	-0.118
RRIRLRPPRLPRPRPRPLKCPRP	-0.0489
RRIRQRPPRLPRPRPRPPFIPRP	-0.0092
RRIRSRPPRLPRPRPRPWICPRP	-0.15
RRIRLRPPRLPRPRPRPMAFPRP	-0.127
RRIRCRPPRLPRPRPRPYQDPRP	-0.725

Sequence	shrunken log2 fold change
RRIRRRPPRLPRPRPRPCPTPRP	0.288
RRIRIRPPRLPRPRPRPHQHPRP	-0.351
RRIRPRPPRLPRPRPRPYTYPRP	-0.0956
RRIRYRPPRLPRPRPRPTGSPRP	0.0529
RRIRWRPPRLPRPRPRPASYPRP	0.151
RRIRGRPPRLPRPRPRPGHMPRP	-0.129
RRIRCRPPRLPRPRPRPGATPRP	0.512
RRIRHRPPRLPRPRPRPMWVPRP	-0.015
RRIRQRPPRLPRPRPRPMKFPRP	-0.21
RRIRHRPPRLPRPRPRPYTCPRP	-0.0278
RRIRCRPPRLPRPRPRPHMPPRP	-0.585
RRIRMRPPRLPRPRPRPICYPRP	-0.119
RRIRPRPPRLPRPRPRPRHHPRP	-0.0806
RRIRNRPPRLPRPRPRPKRLPRP	-0.0121
RRIRARPPRLPRPRPRPVRKPRP	0.763
RRIRTRPPRLPRPRPRPFTEPRP	-0.21
RRIRKRPPRLPRPRPRPYYWPRP	-0.281
RRIRTRPPRLPRPRPRPNPSPRP	-0.128
RRIRYRPPRLPRPRPRPQHSPRP	-0.978
RRIRWRPPRLPRPRPRPNSSPRP	-0.0636
RRIRGRPPRLPRPRPRPAFNPRP	0.2
RRIRNRPPRLPRPRPRPWFYPRP	-0.154
RRIRMRPPRLPRPRPRPHPNPRP	0.299
RRIRDRPPRLPRPRPRPIQKPRP	-0.0081
RRIRQRPPRLPRPRPRPNARPRP	-0.0902

Sequence	shrunken log2 fold change
RRIRGRPPRLPRPRPRPSQNPRP	0.229
RRIRMRPPRLPRPRPRPHGKPRP	-0.0884
RRIRPRPPRLPRPRPRPKMFPRP	0.149
RRIRQRPPRLPRPRPRPGWCPRP	0.0842
RRIRCRPPRLPRPRPRPHFIPRP	-0.528
RRIRARPPRLPRPRPRPPFFPRP	0.603
RRIRHRPPRLPRPRPRPRWAPRP	0.315
RRIRYRPPRLPRPRPRPTALPRP	-0.0277
RRIRMRPPRLPRPRPRPRTTPRP	0.714
RRIRQRPPRLPRPRPRPYCKPRP	-0.257
RRIRMRPPRLPRPRPRPVAHPRP	0.148
RRIRLRPPRLPRPRPRPQHQPRP	-0.261
RRIRLRPPRLPRPRPRPAFCPRP	0.289
RRIRQRPPRLPRPRPRPEGSPRP	-0.00794
RRIRPRPPRLPRPRPRPFGAPRP	-0.00494
RRIRQRPPRLPRPRPRPYWAPRP	-0.355
RRIRRRPPRLPRPRPRPGFPPRP	3.88
RRIRPRPPRLPRPRPRPWNDPRP	0.0243
RRIRIRPPRLPRPRPRPPWQPRP	1.02
RRIRQRPPRLPRPRPRPDHAPRP	0.014
RRIRIRPPRLPRPRPRPQYHPRP	-0.436
RRIRGRPPRLPRPRPRPTLMPRP	0.815
RRIRFRPPRLPRPRPRPDYKPRP	-0.492
RRIRGRPPRLPRPRPRPAHAPRP	1.06
RRIRPRPPRLPRPRPRPLAYPRP	-0.074

Sequence	shrunken log2 fold change
RRIRWRPPRLPRPRPRPWVIPRP	0.00419
RRIRFRPPRLPRPRPRPWRGPRP	0.172
RRIRSRPPRLPRPRPRPIENPRP	-0.00961
RRIRSRPPRLPRPRPRPHPKPRP	0.12
RRIRGRPPRLPRPRPRPPVKPRP	0.678
RRIRLRPPRLPRPRPRPRKGPRP	0.0226
RRIRRRPPRLPRPRPRPCGFPRP	0.265
RRIRVRPPRLPRPRPRPQCAPRP	0.135
RRIRIRPPRLPRPRPRPCVFPRP	-1.22
RRIRWRPPRLPRPRPRPVHVPRP	0.109
RRIRSRPPRLPRPRPRPLWLPRP	-0.0472
RRIRYRPPRLPRPRPRPKIMPRP	-0.131
RRIRVRPPRLPRPRPRPKIFPRP	-0.00445
RRIRPRPPRLPRPRPRPRCQPRP	0.273
RRIRVRPPRLPRPRPRPVRRPRP	2.95
RRIRKRPPRLPRPRPRPPHPPRP	0.672
RRIRMRPPRLPRPRPRPARIPRP	0.56
RRIRRRPPRLPRPRPRPAFCPRP	0.404
RRIRARPPRLPRPRPRPLNHPRP	-0.265
RRIRYRPPRLPRPRPRPWWVPRP	-0.0131
RRIRPRPPRLPRPRPRPAFDPRP	0.388
RRIRIRPPRLPRPRPRPGPRPRP	0.358
RRIRFRPPRLPRPRPRPYPIPRP	-0.281
RRIRNRPPRLPRPRPRPCIVPRP	0.045
RRIRIRPPRLPRPRPRPSFMPRP	-0.871

Sequence	shrunken log2 fold change
RRIRNRPPRLPRPRPRPSTYPRP	-0.318
RRIRQRPPRLPRPRPRPNIGPRP	-0.0212
RRIRDRPPRLPRPRPRPKMIPRP	-0.185
RRIRRRPPRLPRPRPRPMSEPRP	0.0166
RRIRDRPPRLPRPRPRPIWGPRP	-0.0681
RRIRWRPPRLPRPRPRPKWSPRP	0.272
RRIRKRPPRLPRPRPRPDFAPRP	-0.033
RRIRWRPPRLPRPRPRPGYIPRP	0.226
RRIRLRPPRLPRPRPRPYVTPRP	-0.169
RRIRPRPPRLPRPRPRPGACPRP	0.35
RRIRQRPPRLPRPRPRPWRVPRP	-0.049
RRIRTRPPRLPRPRPRPNGNPRP	-0.302
RRIRNRPPRLPRPRPRPYNHPRP	-1.85
RRIRSRPPRLPRPRPRPECDPRP	0.262
RRIRSRPPRLPRPRPRPVRTPRP	-0.0647
RRIRWRPPRLPRPRPRPVPDPRP	-0.101
RRIRGRPPRLPRPRPRPFLAPRP	0.525
RRIRQRPPRLPRPRPRPCLYPRP	-0.29
RRIRTRPPRLPRPRPRPHNAPRP	-0.391
RRIRNRPPRLPRPRPRPPCYPRP	-0.41
RRIRMRPPRLPRPRPRPKLFPRP	0.244
RRIRNRPPRLPRPRPRPRSRPRP	0.177
RRIRMRPPRLPRPRPRPMKSPRP	0.0897
RRIRCRPPRLPRPRPRPVCRPRP	-0.0309
RRIRWRPPRLPRPRPRPVEDPRP	0.00386

Sequence	shrunken log2 fold change
RRIRQRPPRLPRPRPRPDPSPRP	-0.132
RRIRCRPPRLPRPRPRPCSIPRP	-0.143
RRIRYRPPRLPRPRPRPPFGPRP	-0.386
RRIRGRPPRLPRPRPRPQNLPRP	-0.34
RRIRRRPPRLPRPRPRPHLMPRP	0.226
RRIRERPPRLPRPRPRPKGCPRP	-0.0587
RRIRPRPPRLPRPRPRPGWQPRP	0.0481
RRIRIRPPRLPRPRPRPRCTPRP	-0.141
RRIRMRPPRLPRPRPRPHWMPRP	-0.137
RRIRYRPPRLPRPRPRPRCWPRP	0.136
RRIRGRPPRLPRPRPRPMYGPRP	-0.107
RRIRSRPPRLPRPRPRPILWPRP	-0.0848
RRIRPRPPRLPRPRPRPIAIPRP	0.247
RRIRLRPPRLPRPRPRPQYRPRP	-0.188
RRIRCRPPRLPRPRPRPKMRPRP	-0.00909
RRIRTRPPRLPRPRPRPCSGPRP	-0.307
RRIRARPPRLPRPRPRPAMRPRP	0.825
RRIRDRPPRLPRPRPRPEKIPRP	0.652
RRIRLRPPRLPRPRPRPGTDPRP	-0.151
RRIRSRPPRLPRPRPRPRIQPRP	-0.00704
RRIRMRPPRLPRPRPRPINLPRP	-0.0139
RRIRERPPRLPRPRPRPRFYPRP	-0.115
RRIRHRPPRLPRPRPRPPAPPRP	0.466
RRIRERPPRLPRPRPRPAWWPRP	0.00222
RRIRQRPPRLPRPRPRPVEKPRP	0.0119
